Reference: patent publication US20160333063

Target: endogenous tau of wild-type mouse primary cortical neurons, P10637
Sequence (P10637 other isoform, or with tags, fused parts or gaps): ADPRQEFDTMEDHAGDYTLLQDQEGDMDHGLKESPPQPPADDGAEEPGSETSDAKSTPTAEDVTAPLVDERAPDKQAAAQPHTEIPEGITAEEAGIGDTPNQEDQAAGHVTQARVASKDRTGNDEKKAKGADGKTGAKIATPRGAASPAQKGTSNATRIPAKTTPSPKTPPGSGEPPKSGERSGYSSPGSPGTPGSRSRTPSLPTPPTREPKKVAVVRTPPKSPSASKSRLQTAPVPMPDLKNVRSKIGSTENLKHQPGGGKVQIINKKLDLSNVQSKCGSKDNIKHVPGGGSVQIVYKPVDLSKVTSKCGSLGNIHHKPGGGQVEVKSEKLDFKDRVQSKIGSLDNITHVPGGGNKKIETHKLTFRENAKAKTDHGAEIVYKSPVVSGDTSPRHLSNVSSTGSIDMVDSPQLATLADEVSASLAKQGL

B1: caspase 3 (activated, cleaved caspase 3) of mouse primary cortical neurons (protein)
chain: SGIYLDSSYKMDYPEMGICIIINNKNFHKSTGMSSRSGTDVDAANLRETFMGLKYQVRNKNDLTREDILELMDSVSKEDHSKRSSFVCVILSHGDEGVIYGTNGPVELKKLTSFFRGDYCRSLTGKPKLFIIQACRGTELDCGIETDSGTDEEMACQKIPVEADFLYAYSTAPGYYSWRNSKDGSWFIQSLCSMLKLYAHKLEFMHILTRVNRKVATEFESFSLDSTFHAKKQIPCIVSMLTKELYFYH
Q: How did the “tau cleaved at Asp421 (TauC3 western blot, TauC3 to total tau)” value turn out when B1 was run?
A: Its value is “did result in increased cleavage of tau as measured by TauC3 western blot”.
